Laboratory results: patent US20210403565A1 (BIOATLA, published 2021)

Legend:
[1] = target: T1, recombinant human CTLA4 extracellular domain (human, UniProt P16410 36-161); experiment: ELISA, wells coated with human CTLA4, assay pH 6.0; lot 6978 in Glu buffer, T0; unit from the axis Log[ng/mL]
T1 construct: extracellular domain; also called huCTLA-4
T1 sequence (looked up): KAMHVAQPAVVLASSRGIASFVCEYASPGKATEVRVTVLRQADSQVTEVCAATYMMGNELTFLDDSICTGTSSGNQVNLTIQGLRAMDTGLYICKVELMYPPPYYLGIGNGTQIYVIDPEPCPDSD
Procedure: (§1) Both ELISA and FACS analysis were used to measure the binding activity. […] The amount of bound antibodies was quantified using anti-human IgG antibody conjugated to HRP. The absorbance at 450 nm in each measurement was proportional to the amount of antibodies bound. […] EC50 value (in ng/mL) for binding to human CTLA4 was determined by absorbance at 450 nm against antibody concentration with Prism variable slope of four-parameter dose-response curve, which was calculated using the nonlinear fit (variable slope, four parameters) model built into GraphPad Prism software (version 7.03). The buffers tested included His buffer (His), Tris buffer (Tris), Glutamine buffer (Glu) and no buffer.

[2] = target: T1, recombinant human CTLA4 extracellular …; experiment: ELISA, wells coated with human CTLA4, assay pH 6.0; lot 6972 without test buffer; same column repeated in FIG. 9B and FIG. 9C; unit from the axis Log[ng/mL]
Procedure: as §1

| Binder | EC50 [1] [µg/mL] | EC50 [2] [µg/mL] |
| --- | --- | --- |
| BA-087-08-32 (antibody, V domains shown, Detected with anti-human IgG and a molecular weight of 146 kDa was used in SPR, so it was tested as a whole IgG; also called BA-087-08-032; BA-087-08-32 (# 6978)) VH: EVQLVQSGAEVKKPGATVKISCKVSGFTFSHYTMHWIRQSPSRGLEWLGFISYDGNYKYYADSVKGRFTISRDNAKNSLYLQMNSLRAEDTAVYYCARTGWLGPFDYWGQGTLVTVSS VL: EIVMTQSPATLSVSPGERATLSCRASQSVGSSYLAWYQQKPGKAPKLLIYGAFSRATGVPSRFSGSGSGTDFTLTISSLQPEDFATYYCQQDGSSPWTFGQGTKVEIK | 0.0337 |  |
| BA-087-05-19 (antibody, V domains shown, Detected with anti-human IgG and a molecular weight of 146 kDa was used in SPR, so it was tested as a whole IgG; also called BA-087-05-019; BA-087-05-19 (# 6972)) VH: EVQLVESGGGLVQPGGSLRLSCAASGFTFSHYTMHWVRQAPGKGLEWVSFISYDGNNKYYADSVKGRFTISRDNSKNTLYLQMNSLRAEDTAVYYCARTGWLGPFDYWGQGTLVTVSS VL: AIQLTQSPSSLSASVGDRVTITCRASQYVGSSYLAWYLQKPGQSPQLLIYGAFSRATGIPARFSGSGSGTEFTLTISSLQSEDFAVYYCQQDGSSPWTFGQGTKVEIK |  | 0.00626 |
